The source of these data is PMC2945256.

In the assay the target is Elongation Factor 1 alpha (EF1α), endogenous in rat liver lysosomes (rat (endogenous in rat liver)) (UniProt P62630). Description: co-IP.
Chain of UniProt P62630 (P62630 whole entry): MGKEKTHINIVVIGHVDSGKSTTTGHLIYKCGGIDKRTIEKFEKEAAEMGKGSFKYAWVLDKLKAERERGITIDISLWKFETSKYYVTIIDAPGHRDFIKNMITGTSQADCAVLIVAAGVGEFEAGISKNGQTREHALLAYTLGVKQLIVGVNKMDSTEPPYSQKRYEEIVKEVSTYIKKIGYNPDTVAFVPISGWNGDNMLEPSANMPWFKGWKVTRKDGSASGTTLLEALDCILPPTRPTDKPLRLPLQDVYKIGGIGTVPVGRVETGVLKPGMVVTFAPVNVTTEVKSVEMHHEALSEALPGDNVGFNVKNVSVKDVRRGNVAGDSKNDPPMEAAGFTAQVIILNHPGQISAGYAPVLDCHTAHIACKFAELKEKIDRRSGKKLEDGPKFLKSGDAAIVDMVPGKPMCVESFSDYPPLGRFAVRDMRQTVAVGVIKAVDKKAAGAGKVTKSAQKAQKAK

As for “glial fibrillary acidic protein (GFAP), endogenous in rat liver lysosomes (from UniProt P47819 1-430) (natural protein)”, the decrease of GFAP co-immunoprecipitated with EF1α upon addition of GTP was 47.2%.
